# Data published in article PMC483052 (Journal of Neuroinflammation, 2004).
# B1: serine racemase (enzyme, rat (endogenous in primary microglia), UniProt Q76EQ0 1-333, looked up)
# chain: MCAQYCISFADVEKAHLNIQDSVHLTPVLTSSILNQIAGRNLFFKCELFQKTGSFKIRGALNAIRGLIPDTLEGKPKAVVTHSSGNHGQALTYAAKLEGIPAYIVVPQTAPNCKKLAIQAYGASIVYSEPSDESRENVAQRIIQETEGILVHPNQEPAVIAGQGTIALEVLNQVPLVDALVVPVGGGGMVAGIAITIKTLKPSVKVYAAEPSNADDCYQSKLKGELTPNLHPPETIADGVKSSIGLNTWPIIRDLVDDVFTVTEDEIKYATQLVWERMKLLIEPTAGVGLAAVLSQHFQTVSPEVKNICIVLSGGNVDLTSLSWVKQAERPAP
# Target: the molecule itself
# Test: western blot of cell lysates
protein,measurement,value
B1,stoichiometry N,2
